Laboratory results taken from PMC11552376, “Specific binding between Arabidopsis thaliana phytochrome-interacting factor 3 (AtPIF3) bHLH and G-box originated prior to embryophyte emergence” (BMC Plant Biology, 2024).

Columns and labels:
AtPIF3-bHLH R356A = target: T1, AtPIF3-bHLH R356A (Arabidopsis thaliana, UniProt O80536 340-397, R356A); assay: ITC; error exceeds value; ITC: 30 mM HEPES, 125 mM NaCl, pH 7.5, 25 C, 400 uM protein into 40 uM DNA; fEMSA: 30 mM HEPES, 500 mM NaCl, pH 7.4, on ice 30 min, 3 uM probe, 10% native gel in 0.5x TBE at 4 C; details: protein: recombinant; tags: C-terminal His6; chain copies: 2; blunt
T1 sequence: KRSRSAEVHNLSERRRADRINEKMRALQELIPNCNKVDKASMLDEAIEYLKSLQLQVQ

AtPIF3-bHLH H348A = target: T2, AtPIF3-bHLH H348A (Arabidopsis thaliana, UniProt O80536 340-397, H348A); assay: ITC; binding curve unsaturated; ITC: 30 mM HEPES, 125 mM NaCl, pH 7.5, 25 C, 400 uM protein into 40 uM DNA; fEMSA: 30 mM HEPES, 500 mM NaCl, pH 7.4, on ice 30 min, 3 uM probe, 10% native gel in 0.5x TBE at 4 C; details: protein: recombinant; tags: C-terminal His6; chain copies: 2; blunt
T2 sequence: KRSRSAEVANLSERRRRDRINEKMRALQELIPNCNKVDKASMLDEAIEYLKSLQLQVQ

B1: G-box (PER2), ITC (dsDNA)
DNA 1: AGGAACACGTGACCC
DNA 2: GGGTCACGTGTTCCT
- Kd (AtPIF3-bHLH R356A): 106 ± 112 µM
- Kd (AtPIF3-bHLH H348A): 3.39 ± 0.275 µM
